Measured values published in patent US20240301052A1 (LANOVA MEDICINES DEVELOPMENT, published 2024).
Positions count from the first letter of the chain named. Like-named read-outs stand apart in the source and are kept apart here. Each block holds one binder with its values, some of them ahead of it.

Assays:
human SLC34A2 [1] = biological target: T1, human SLC34A2 (human, UniProt O95436 1-690); assay: cell-based or functional assay
T1 sequence (looked up): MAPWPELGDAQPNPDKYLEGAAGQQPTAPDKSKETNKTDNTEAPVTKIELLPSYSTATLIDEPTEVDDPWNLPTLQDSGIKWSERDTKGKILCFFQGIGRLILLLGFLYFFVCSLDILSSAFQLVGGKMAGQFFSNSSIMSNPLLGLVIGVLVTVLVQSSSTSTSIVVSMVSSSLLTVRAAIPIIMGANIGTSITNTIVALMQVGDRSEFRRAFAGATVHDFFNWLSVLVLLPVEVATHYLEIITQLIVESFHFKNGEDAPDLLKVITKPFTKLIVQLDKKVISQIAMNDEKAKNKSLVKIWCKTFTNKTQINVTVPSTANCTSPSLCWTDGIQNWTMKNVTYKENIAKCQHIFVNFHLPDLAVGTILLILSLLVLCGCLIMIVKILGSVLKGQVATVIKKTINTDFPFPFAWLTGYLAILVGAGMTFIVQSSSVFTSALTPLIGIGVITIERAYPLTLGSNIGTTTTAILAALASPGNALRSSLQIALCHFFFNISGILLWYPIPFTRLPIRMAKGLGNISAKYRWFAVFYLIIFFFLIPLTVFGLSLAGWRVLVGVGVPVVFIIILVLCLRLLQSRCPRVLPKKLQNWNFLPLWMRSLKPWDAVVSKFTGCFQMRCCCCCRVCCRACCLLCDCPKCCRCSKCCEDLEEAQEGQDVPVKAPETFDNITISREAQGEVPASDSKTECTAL

rat SLC34A2 [2] = biological target: T2, rat SLC34A2 (rat, UniProt Q9JJ09 1-695); assay: FACS, HEK293/Rat SLC34A2 cells
T2 construct: whole, on cells
T2 sequence (looked up): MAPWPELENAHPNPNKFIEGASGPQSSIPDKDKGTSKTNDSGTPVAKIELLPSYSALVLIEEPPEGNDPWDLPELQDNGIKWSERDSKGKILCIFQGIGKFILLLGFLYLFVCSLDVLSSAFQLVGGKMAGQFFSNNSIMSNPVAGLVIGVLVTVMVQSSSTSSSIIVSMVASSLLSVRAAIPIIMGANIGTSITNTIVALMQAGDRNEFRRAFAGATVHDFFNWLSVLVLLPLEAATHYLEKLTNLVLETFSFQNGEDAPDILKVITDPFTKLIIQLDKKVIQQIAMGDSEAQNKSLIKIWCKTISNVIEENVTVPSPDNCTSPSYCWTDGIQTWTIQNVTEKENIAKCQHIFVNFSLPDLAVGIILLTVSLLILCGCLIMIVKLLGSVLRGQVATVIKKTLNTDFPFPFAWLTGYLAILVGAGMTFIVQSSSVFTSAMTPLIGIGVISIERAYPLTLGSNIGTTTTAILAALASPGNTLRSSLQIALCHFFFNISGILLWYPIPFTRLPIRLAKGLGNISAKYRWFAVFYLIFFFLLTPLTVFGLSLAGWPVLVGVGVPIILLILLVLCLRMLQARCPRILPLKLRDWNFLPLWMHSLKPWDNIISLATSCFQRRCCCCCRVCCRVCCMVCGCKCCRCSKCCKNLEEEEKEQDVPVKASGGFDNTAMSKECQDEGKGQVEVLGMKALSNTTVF

human SLC34A2 [3] = biological target: T1, human SLC34A2; assay: FACS, MDAH2774 cells
mouse SLC34A2 [4] = biological target: T3, mouse SLC34A2 (mouse, UniProt Q9DBP0 1-697); assay: FACS, HEK293/Mouse SLC34A2 cells
T3 construct: whole, on cells
T3 sequence (looked up): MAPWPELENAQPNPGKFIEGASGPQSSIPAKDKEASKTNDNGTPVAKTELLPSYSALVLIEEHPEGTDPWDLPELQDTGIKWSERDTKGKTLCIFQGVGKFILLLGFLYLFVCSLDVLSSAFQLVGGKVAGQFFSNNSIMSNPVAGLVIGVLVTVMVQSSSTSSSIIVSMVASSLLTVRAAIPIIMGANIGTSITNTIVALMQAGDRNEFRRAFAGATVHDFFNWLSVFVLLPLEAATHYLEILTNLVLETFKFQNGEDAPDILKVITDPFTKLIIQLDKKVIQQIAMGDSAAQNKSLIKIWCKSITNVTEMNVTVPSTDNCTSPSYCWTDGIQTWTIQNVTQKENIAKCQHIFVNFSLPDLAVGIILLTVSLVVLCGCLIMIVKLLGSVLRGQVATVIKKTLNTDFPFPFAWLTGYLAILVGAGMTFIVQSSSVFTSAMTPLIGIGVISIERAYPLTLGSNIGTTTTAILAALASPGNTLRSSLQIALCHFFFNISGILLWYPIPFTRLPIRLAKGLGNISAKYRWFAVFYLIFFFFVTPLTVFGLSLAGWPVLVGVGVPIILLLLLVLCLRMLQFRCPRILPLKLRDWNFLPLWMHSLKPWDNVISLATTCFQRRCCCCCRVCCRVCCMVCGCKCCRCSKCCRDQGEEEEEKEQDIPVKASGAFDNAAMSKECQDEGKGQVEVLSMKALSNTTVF

human SLC34A2 [5] = biological target: T1, human SLC34A2; assay: FACS, HEK293/human SLC34A2 cells
[6] = biological target: Cynomolgus SLC34A2 (Cynomolgus); assay: FACS, cells expressing Cynomolgus SLC34A2
human SLC34A2 [7] = biological target: T1, human SLC34A2; assay: FACS, RMG-1 cells
Outline: (§1)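 Cell-surface binding by flow cytometry: hu Abs on SLC34A2-expressing cells, 60 min at 4° C.; 2× FACS buffer wash; fluorescent-conjugated secondary 30 min at 4° C.; 2× wash, then acquisition.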

human SLC34A2 [8] = biological target: T1, human SLC34A2; assay: FACS, OVCAR3 cells
Procedure: The binding of these humanized antibodies to OVCAR3 cells was evaluated as described above, and the results are shown in FIG. 12A-D and Tables 16A-D.

human SLC34A2 [9] = biological target: T1, human SLC34A2; assay: FACS, OVCAR3 cells; remark: listed apart in the source
Outline: as §1

rat SLC34A2 [10] = biological target: T2, rat SLC34A2; assay: FACS, HEK293/Rat SLC34A2 cells; remark: listed apart in the source
mouse SLC34A2 [11] = biological target: T3, mouse SLC34A2; assay: FACS, HEK293/Mouse SLC34A2 cells; remark: listed apart in the source
human SLC34A2 [12] = biological target: T1, human SLC34A2; assay: FACS, HEK293/human SLC34A2 cells
Outline: as §1

Rhesus SLC34A2 = biological target: T4, Rhesus SLC34A2 (Rhesus, UniProt F7HDA3 1-690); assay: FACS, HEK293/Rhesus SLC34A2 cells
T4 construct: whole, on cells
T4 sequence: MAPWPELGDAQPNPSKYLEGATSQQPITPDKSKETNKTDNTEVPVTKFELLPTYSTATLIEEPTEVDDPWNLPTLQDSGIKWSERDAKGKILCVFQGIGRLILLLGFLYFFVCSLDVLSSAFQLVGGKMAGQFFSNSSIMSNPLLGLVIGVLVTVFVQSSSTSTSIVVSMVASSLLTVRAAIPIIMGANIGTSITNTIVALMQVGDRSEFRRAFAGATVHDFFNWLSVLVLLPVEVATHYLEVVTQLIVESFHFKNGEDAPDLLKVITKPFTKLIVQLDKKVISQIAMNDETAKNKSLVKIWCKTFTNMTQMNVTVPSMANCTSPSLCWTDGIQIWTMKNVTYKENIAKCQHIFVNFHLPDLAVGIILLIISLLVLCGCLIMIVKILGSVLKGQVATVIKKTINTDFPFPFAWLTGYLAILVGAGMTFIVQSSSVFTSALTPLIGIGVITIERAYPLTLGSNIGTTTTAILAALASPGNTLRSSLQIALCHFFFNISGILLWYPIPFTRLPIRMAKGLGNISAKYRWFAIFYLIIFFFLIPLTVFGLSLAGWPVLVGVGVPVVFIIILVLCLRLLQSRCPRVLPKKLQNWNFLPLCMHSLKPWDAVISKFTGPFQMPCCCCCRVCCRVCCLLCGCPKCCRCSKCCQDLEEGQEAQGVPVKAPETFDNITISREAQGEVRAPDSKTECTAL

human SLC34A2 [13] = biological target: T1, human SLC34A2; assay: cell-based or functional assay; remark: listed apart in the source

ADCC reporter EC50 (human SLC34A2 [1]): 1.31 nM
ADCC reporter Top (MFI) (human SLC34A2 [1]): 15700 MFI
ADCC-HEK293 (human SLC34A2 [1]): 2.02 nM
ADCC-OVCAR3 (human SLC34A2 [1]): 2.97 nM
EC50 (rat SLC34A2 [2]): 715 nM
EC50 (human SLC34A2 [3]): 8.74 nM
EC50 (mouse SLC34A2 [4]): 412 nM
EC50 (human SLC34A2 [5]): 8.25 nM
EC50 [6]: 1080 nM
B1: RG-7599 (antibody, INN chains, looked up, V domains shown)
VH: EVQLVESGGGLVQPGGSLRLSCAASGFSFSDFAMSWVRQAPGKGLEWVATIGRVAFHTYYPDSMKGRFTISRDNSKNTLYLQMNSLRAEDTAVYYCARHRGFDVGHFDFWGQGTLVTVSS
VL: DIQMTQSPSSLSASVGDRVTITCRSSETLVHSSGNTYLEWYQQKPGKAPKLLIYRVSNRFSGVPSRFSGSGSGTDFTLTISSLQPEDFATYYCFQGSFNPLTFGQGTKVEIK
modifications: vedotin (MMAE) payload
Cytotoxic Effect - MDAH-2774 (human SLC34A2 [1]): 6.83 nM
Cytotoxic Effect - OVCAR3 (human SLC34A2 [1]): 0.325 nM

EC50 (human SLC34A2 [7]): 11.1 nM
Top (human SLC34A2 [7]): 10900 MFI
EC50 (human SLC34A2 [8]): 8.61 nM
Top (MFI) (human SLC34A2 [8]): 30000 MFI
EC50 (human SLC34A2 [9]): 8.61 nM
binding result (rat SLC34A2 [10]): binds
binding result (mouse SLC34A2 [11]): binds
EC50 (human SLC34A2 [12]): 4.42 nM
Top (human SLC34A2 [12]): 31500 MFI
EC50 (Rhesus SLC34A2): 2.5 nM
Top (MFI) (Rhesus SLC34A2): 12200 MFI
B2: 62G10E4G8.p3.z8 hIgG1 (antibody, V domains shown)
VH: QVQLVQSGAEVKKPGASVKVSCKASGYTFPSYITHWVRQAPGQGLEWIGAIYPGNADTSYIQKFKGRVTMTADKSTSTVYMELSSLRSEDTAVYYCARGTYGTSAWFTYWGQGTLVTVSS
VL: EIVLTQSPATLSASPGERATLSCRARQNIGNNLYWYQQKPGQSPRLLIKYASQSISGIPSRFSGSGSGTDFTLTISSVQSEDFAVYFCQQSFSWPLTFGAGTKLEIK
notes: humanized hIgG1

EC50 (human SLC34A2 [7]): 11.4 nM
Top (human SLC34A2 [7]): 11300 MFI
EC50 (human SLC34A2 [8]): 4.32 nM
Top (MFI) (human SLC34A2 [8]): 28200 MFI
EC50 (human SLC34A2 [9]): 4.32 nM
ADCC reporter EC50 (human SLC34A2 [13]): 3.78 nM
ADCC reporter Top (MFI) (human SLC34A2 [13]): 116000 MFI
binding result (rat SLC34A2 [10]): binds
binding result (mouse SLC34A2 [11]): binds
EC50 (human SLC34A2 [12]): 5.07 nM
Top (human SLC34A2 [12]): 31900 MFI
EC50 (Rhesus SLC34A2): 3.4 nM
Top (MFI) (Rhesus SLC34A2): 14700 MFI
B3: 62G10E4G8.p3.z11 hIgG1 (antibody, V domains shown)
VH: B2 VH with R38K, M70L, V79A
VL: B2 VL with A13V, V78L, A100Q
notes: humanized hIgG1
